Experiments:
[1] = molecular target: human integrin αvβ8 on M000216 melanoma cells (human (endogenous in M000216)) (UniProt P06756); experiment: flow cytometry on cells
[2] = molecular target: mouse integrin αvβ8 on B16-mβ8 cells (mouse (endogenous in B16) | mouse) (UniProt P43406); experiment: flow cytometry on cells
[3] = molecular target: recombinant soluble fiber knob of mouse adenovirus 3 (FK-M3) (mouse adenovirus 3 (MAdV-3)); experiment: SEC-MALS
[4] = molecular target: mouse integrin αvβ6 on B16-mβ6 cells (mouse (endogenous in B16) | mouse) (UniProt P43406); experiment: flow cytometry on cells
[5] = molecular target: mouse integrin αvβ6 on CMT-93 cells (mouse (endogenous in CMT-93)) (UniProt P43406); experiment: flow cytometry on cells
[6] = molecular target: biotinylated fiber knob of mouse adenovirus 3 (FKb-M3) (mouse adenovirus 3 (MAdV-3)); experiment: SPR; […], single cycle; Biacore T200, 20°C; […] (CaCl2, MgCl2, […]; 1:1 kinetic model
[7] = molecular target: the molecule itself; experiment: SEC-MALS
[8] = molecular target: T1, soluble mouse integrin αvβ6 (sITG mαvβ6) (mouse, UniProt P43406;Q9Z0T9); experiment: SPR; […], single cycle; Biacore T200, 20°C; […] (CaCl2, MgCl2, […]; 1:1 kinetic model; settings: both partners purified
T1 construct: also called mouse sITG αvβ6; source: bought: R&D Systems, expressed in and secreted from CHO cells

[9] = molecular target: T2, soluble human integrin αvβ6 (sITG hαvβ6) (human, UniProt P06756;P18564); experiment: as above; settings: both partners purified
T2 construct: also called human sITG αvβ6

[10] = molecular target: T3, soluble human integrin αvβ8 (sITG hαvβ8) (human, UniProt P06756;P26012); experiment: as above; settings: both partners purified
T3 construct: also called human sITG αvβ8

[11] = molecular target: T4, mouse integrin αvβ6 on B16-mβ6 cells (mouse (endogenous in B16) | mouse, UniProt P43406;Q9Z0T9); experiment: flow cytometry on cells; settings: one partner purified
T4 construct: also called mαvβ6
T4 sequence (P43406 31-1044, chain 1 of 2): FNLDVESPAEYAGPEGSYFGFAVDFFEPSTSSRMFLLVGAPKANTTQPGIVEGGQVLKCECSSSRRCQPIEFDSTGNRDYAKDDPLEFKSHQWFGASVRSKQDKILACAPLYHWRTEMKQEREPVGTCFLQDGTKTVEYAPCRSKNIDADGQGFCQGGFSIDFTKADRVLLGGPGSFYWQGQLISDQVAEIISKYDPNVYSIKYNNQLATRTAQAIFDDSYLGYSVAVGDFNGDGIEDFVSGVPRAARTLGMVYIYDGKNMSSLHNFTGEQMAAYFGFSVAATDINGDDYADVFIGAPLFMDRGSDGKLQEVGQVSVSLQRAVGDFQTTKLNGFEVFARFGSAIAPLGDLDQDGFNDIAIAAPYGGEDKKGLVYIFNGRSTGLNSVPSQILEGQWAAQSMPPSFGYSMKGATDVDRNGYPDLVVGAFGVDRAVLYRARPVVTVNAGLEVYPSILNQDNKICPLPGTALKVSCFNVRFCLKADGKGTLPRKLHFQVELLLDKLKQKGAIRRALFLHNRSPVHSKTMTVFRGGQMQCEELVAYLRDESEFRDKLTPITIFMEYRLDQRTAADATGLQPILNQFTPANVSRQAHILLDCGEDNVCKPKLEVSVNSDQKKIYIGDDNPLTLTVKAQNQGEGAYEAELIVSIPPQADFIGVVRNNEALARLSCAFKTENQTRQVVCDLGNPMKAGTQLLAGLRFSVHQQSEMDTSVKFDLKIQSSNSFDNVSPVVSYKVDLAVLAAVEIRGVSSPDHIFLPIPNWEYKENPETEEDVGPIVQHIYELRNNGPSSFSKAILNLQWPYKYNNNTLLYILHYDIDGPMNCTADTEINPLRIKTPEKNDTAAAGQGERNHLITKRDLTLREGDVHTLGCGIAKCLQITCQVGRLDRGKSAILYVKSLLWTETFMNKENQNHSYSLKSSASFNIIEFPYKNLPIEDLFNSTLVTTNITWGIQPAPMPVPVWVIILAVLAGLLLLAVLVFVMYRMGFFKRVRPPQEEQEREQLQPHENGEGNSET
T4 sequence (Q9Z0T9 22-787, chain 2 of 2): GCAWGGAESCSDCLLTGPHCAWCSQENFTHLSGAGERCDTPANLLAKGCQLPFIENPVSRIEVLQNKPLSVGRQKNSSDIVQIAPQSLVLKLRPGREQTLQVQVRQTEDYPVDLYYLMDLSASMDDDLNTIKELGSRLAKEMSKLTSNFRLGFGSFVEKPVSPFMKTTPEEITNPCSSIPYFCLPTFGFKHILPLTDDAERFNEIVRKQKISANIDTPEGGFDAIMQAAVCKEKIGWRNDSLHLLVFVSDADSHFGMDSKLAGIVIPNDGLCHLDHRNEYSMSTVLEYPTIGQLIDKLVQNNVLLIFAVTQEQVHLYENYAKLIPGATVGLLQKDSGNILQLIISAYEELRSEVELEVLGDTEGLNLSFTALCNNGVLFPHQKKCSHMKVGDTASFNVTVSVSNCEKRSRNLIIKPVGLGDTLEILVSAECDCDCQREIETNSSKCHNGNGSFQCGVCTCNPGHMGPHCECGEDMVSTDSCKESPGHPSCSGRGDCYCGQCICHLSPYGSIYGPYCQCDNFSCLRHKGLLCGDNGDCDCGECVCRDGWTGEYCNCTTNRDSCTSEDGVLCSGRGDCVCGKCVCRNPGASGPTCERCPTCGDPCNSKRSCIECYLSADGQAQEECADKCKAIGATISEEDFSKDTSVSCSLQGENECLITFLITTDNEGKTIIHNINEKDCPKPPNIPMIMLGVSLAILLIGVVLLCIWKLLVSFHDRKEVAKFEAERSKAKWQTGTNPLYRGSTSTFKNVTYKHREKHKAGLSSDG

mouse integrin αvβ8 on B16-mβ8 cells (mouse (endogenous in B16) | mouse), sequence (P43406 31-1044, chain 1 of 2): as the sequence (P43406 31-1044, chain 1 of 2) above
mouse integrin αvβ8 on B16-mβ8 cells (mouse (endogenous in B16) | mouse), sequence (Q0VBD0 22-767, chain 2 of 2, further chain): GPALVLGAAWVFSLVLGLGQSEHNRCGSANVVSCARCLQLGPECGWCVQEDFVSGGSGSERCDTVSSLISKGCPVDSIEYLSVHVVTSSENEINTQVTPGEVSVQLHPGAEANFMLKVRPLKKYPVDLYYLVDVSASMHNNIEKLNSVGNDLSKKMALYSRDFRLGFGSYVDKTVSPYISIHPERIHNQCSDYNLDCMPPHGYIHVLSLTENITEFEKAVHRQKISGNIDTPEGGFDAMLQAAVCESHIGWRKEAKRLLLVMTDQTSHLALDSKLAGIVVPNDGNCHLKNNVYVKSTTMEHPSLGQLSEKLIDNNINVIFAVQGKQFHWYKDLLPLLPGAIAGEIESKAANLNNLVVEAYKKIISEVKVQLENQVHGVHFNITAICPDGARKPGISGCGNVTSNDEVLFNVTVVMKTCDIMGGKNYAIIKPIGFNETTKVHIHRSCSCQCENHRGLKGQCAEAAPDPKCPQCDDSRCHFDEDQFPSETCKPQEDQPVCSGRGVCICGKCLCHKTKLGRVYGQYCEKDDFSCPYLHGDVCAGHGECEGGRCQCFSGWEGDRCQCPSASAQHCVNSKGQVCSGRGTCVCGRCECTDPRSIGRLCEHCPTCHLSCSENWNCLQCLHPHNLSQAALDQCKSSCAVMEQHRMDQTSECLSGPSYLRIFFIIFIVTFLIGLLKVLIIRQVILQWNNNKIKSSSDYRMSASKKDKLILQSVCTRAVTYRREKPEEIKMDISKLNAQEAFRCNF
human integrin αvβ8 on M000216 melanoma cells (human (endogenous in M000216)), sequence (P06756 31-1048, chain 1 of 2): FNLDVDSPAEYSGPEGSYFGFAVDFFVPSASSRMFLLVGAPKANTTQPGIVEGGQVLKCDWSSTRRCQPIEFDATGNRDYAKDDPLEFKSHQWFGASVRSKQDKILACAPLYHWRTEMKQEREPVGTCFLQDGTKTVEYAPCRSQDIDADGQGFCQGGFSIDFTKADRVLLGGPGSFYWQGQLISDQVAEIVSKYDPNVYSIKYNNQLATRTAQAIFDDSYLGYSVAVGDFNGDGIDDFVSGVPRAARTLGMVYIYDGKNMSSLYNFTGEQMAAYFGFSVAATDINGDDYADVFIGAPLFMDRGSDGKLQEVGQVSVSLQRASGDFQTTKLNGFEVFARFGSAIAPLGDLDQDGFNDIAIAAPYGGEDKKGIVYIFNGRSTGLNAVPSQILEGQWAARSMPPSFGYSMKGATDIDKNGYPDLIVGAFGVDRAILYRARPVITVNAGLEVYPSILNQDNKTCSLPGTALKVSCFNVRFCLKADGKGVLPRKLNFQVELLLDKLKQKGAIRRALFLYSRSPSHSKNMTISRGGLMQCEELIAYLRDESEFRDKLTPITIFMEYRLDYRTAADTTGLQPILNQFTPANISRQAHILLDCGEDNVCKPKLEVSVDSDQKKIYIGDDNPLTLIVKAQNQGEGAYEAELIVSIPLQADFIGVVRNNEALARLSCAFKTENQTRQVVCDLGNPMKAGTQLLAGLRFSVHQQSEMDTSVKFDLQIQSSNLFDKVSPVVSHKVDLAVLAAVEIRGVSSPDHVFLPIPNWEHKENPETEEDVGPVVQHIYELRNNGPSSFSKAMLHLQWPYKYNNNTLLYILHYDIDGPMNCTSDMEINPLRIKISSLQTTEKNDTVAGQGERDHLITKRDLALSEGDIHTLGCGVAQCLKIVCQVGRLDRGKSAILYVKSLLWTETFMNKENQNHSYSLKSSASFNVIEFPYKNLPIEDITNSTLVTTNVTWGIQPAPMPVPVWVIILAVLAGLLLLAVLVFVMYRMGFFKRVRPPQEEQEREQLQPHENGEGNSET
human integrin αvβ8 on M000216 melanoma cells (human (endogenous in M000216)), sequence (P26012 43-769, chain 2 of 2, further chain): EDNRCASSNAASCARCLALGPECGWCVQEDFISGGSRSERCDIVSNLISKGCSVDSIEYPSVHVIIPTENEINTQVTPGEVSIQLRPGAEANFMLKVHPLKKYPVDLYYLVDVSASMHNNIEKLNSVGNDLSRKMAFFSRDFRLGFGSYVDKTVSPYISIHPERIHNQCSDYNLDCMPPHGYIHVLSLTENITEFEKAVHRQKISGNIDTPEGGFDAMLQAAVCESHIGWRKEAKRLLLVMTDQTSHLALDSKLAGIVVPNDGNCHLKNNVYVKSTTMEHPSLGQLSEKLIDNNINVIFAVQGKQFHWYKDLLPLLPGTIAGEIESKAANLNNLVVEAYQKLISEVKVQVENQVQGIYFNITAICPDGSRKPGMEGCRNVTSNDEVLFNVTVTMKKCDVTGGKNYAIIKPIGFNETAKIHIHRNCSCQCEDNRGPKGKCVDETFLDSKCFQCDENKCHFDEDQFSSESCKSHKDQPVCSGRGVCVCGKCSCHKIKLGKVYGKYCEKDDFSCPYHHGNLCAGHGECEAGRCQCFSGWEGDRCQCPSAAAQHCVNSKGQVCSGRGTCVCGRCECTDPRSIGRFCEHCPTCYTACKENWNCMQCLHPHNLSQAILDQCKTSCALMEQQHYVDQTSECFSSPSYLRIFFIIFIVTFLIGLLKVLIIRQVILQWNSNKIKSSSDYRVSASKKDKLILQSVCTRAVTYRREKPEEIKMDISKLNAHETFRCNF
mouse integrin αvβ6 on CMT-93 cells (mouse (endogenous in CMT-93)), sequence (P43406 31-1044, chain 1 of 2): as the sequence (P43406 31-1044, chain 1 of 2) above
mouse integrin αvβ6 on CMT-93 cells (mouse (endogenous in CMT-93)), sequence (Q9Z0T9 22-787, chain 2 of 2, further chain): as the sequence (Q9Z0T9 22-787, chain 2 of 2) above
mouse integrin αvβ6 on B16-mβ6 cells (mouse (endogenous in B16) | mouse), sequence (P43406 31-1044, chain 1 of 2): as the sequence (P43406 31-1044, chain 1 of 2) above
mouse integrin αvβ6 on B16-mβ6 cells (mouse (endogenous in B16) | mouse), sequence (Q9Z0T9 22-787, chain 2 of 2, further chain): as the sequence (Q9Z0T9 22-787, chain 2 of 2) above

## MAdV-1-IX-2A-GFP virus particles (M1-IX-G), bearing the M1 fiber (from UniProt P19721 1-613) (complex)
[1]
  fold increase of the binding enhancement in the presence of Mn2+: 1.5 fold
[2]
  fold increase of virus binding, Mg2+/Ca2+ buffer: 1.3 fold

## MAdV-3-IX-2A-GFP virus particles (M3-IX-G), bearing the M3 fiber (complex)
[1]
  fold increase of the binding enhancement in the presence of Mn2+: 3.4 fold
[2]
  fold increase of virus binding, Mg2+/Ca2+ buffer: 1.3 fold
  fold increase of virus binding, Mn2+ buffer: 2.7 fold

## recombinant soluble fiber knob of mouse adenovirus 3 (FK-M3) (domain or fragment)
[3]
  stoichiometry N: 3
[1]
  Kd: 1.21 nM
[4]
  Kd: 0.068 nM
[5]
  Kd: 0.069 nM
[2]
  Kd: 1.31 nM

## soluble human integrin αvβ6 (sITG hαvβ6) (from UniProt P06756;P18564) (receptor)
[6]
  Kd: 0.059 nM
  koff: 5.01e-06 s⁻¹
  kon: 85000 M⁻¹ s⁻¹

## soluble human integrin αvβ8 (sITG hαvβ8) (from UniProt P06756;P26012) (receptor)
[6]
  Kd: 1.32 nM
  koff: 0.000965 s⁻¹
  kon: 729000 M⁻¹ s⁻¹

## soluble mouse integrin αvβ6 (sITG mαvβ6) (from UniProt P43406;Q9Z0T9) (receptor)
[6]
  Kd: < 0.01 nM
  koff: 3.12e-08 s⁻¹
  kon: 51300 M⁻¹ s⁻¹

B1: biotinylated fiber knob of human adenovirus C5 (FKb-H5) (domain or fragment)
chain: TPAPSPNCRLNAEKDAKLTLVLTKCGSQILATVSVLAVKGSLAPISGTVQSAHLIIRFDENGVLLNNSFLDPEYWNFRNGDLTEGTAYTNAVGFMPNLSAYPKSHGKTAKSNIVSQVYLNGDKTKPVTLTITLNGTQETGDTTPSAYSMSFSWDWSGHNYINEIFATSSYTFSYIAQE
modifications: biotin (biotinylated by co-expressed protein biotin ligase BirA)
[7]
  stoichiometry N: 3

B2: biotinylated fiber knob of mouse adenovirus 1 (FKb-M1) (domain or fragment)
chain: GLPIGNNGTFHTKQDCKIFLSLTRLGPMVHGTFMLQAPQYELTTNGMREITFSFNSTGGLEQPAPVTYWGALDPPPTAKAAEIENQKRVKKRAAPDPPVEPPPKRRGDLAVLFAKVAEQAMELAKEQAVQAQPPEHVNTDWADHMNLLRFMPNTLVYPTAATIAANLQFHDTRLSLRRATLKIRLNGSPDSAYQLGFMLELVGTQSASIVTDTISFWYYAEDY
modifications: biotin (biotinylated by co-expressed protein biotin ligase BirA)
[7]
  stoichiometry N: 3
[8]
  Kd: 0.25 nM
  koff: 1.66e-05 s⁻¹
  kon: 66400 M⁻¹ s⁻¹
[9]
  Kd: 1.58 nM
  koff: 0.000127 s⁻¹
  kon: 80200 M⁻¹ s⁻¹
[10]
  Kd: 14.5 nM
  koff: 0.00673 s⁻¹
  kon: 465000 M⁻¹ s⁻¹

B3: recombinant soluble fiber knob of mouse adenovirus 1 (FK-M1) (domain or fragment)
chain: GLPIGNNGTFHTKQDCKIFLSLTRLGPMVHGTFMLQAPQYELTTNGMREITFSFNSTGGLEQPAPVTYWGALDPPPTAKAAEIENQKRVKKRAAPDPPVEPPPKRRGDLAVLFAKVAEQAMELAKEQAVQAQPPEHVNTDWADHMNLLRFMPNTLVYPTAATIAANLQFHDTRLSLRRATLKIRLNGSPDSAYQLGFMLELVGTQSASIVTDTISFWYYAEDY
notes: source: pET28a expression, purified (Ni-NTA); not shown: His6, N-terminal, kept
[11]
  Kd: 1.27 ± 0.66 nM
